Columns and labels:
PP-1c (Homo sapiens) = PP-1c (Homo sapiens) (UniProt P62136); conditions: cited from earlier work
[1] = target: T1, Protein phosphatase-1cα (PP-1cα) (human, UniProt P62136 1-330); test: crystal structure
p53 DBD = p53 DBD (human, UniProt P04637 94-292); test: EMSA
[2] = target: T1, Protein phosphatase-1cα (PP-1cα); test: SEC-MALS

T1 sequence (P62136 whole entry): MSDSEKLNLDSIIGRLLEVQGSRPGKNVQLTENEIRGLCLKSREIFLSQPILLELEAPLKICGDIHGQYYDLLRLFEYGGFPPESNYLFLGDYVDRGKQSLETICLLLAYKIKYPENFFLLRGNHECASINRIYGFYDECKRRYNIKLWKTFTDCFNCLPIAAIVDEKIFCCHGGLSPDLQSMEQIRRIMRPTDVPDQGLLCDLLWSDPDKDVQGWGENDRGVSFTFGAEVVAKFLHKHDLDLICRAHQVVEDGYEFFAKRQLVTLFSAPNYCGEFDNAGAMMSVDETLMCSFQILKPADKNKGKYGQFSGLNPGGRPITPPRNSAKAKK
Chain of PP-1c (Homo sapiens) (P62136 2-330): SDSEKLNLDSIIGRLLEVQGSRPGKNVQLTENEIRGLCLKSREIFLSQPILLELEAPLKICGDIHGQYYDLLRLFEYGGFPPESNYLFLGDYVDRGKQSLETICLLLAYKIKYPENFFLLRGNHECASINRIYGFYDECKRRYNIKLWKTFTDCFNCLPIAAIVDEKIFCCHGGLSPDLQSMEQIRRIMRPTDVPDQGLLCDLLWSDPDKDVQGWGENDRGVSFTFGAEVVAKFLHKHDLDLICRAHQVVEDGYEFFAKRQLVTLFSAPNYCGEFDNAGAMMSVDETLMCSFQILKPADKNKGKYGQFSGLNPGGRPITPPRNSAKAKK
Chain of p53 DBD (P04637 94-292): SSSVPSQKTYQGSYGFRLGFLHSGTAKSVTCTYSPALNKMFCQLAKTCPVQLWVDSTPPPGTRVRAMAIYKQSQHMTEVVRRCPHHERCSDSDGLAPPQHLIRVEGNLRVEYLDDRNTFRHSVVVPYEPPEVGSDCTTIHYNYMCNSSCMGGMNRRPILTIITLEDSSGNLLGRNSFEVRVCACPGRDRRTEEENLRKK

In the case of iASPP (from UniProt Q8WUF5), the Kd (PP-1c (Homo sapiens)) is listed as 26 nM.

B1: iASPP_(608–828) (domain or fragment, human, UniProt Q8WUF5 608-828, looked up)
chain: RSVLRKAGSPRKARRARLNPLVLLLDAALTGELEVVQQAVKEMNDPSQPNEEGITALHNAICGANYSIVDFLITAGANVNSPDSHGWTPLHCAASCNDTVICMALVQHGAAIFATTLSDGATAFEKCDPYREGYADCATYLADVEQSMGLMNSGAVYALWDYSAEFGDELSFREGESVTVLRRDGPEETDWWWAALHGQEGYVPRNYFGLFPRVKPQRSKV
B1: binds [1].

B2: PUMA p53 site (dsDNA)
DNA 1: CGCGCCTGCAAGTCCTGACTTGTCCGCGGC
DNA 2: GCCGCGGACAAGTCAGGACTTGCAGGCGCG
B2: binds (p53 DBD).

B3: ASPP2_(905–1128) (domain or fragment, human, UniProt Q13625 905-1128, looked up)
chain: RTNLRKTGSERIAHGMRVKFNPLALLLDSSLEGEFDLVQRIIYEVDDPSLPNDEGITALHNAVCAGHTEIVKFLVQFGVNVNAADSDGWTPLHCAASCNNVQVCKFLVESGAAVFAMTYSDMQTAADKCEEMEEGYTQCSQFLYGVQEKMGIMNKGVIYALWDYEPQNDDELPMKEGDCMTIIHREDEDEIEWWWARLNDKEGYVPRNLLGLYPRIKPRQRSLA
B3: binds [2].

B4: iASPP(621–828) (domain or fragment, human, UniProt Q8WUF5 621-828, looked up)
chain: RRARLNPLVLLLDAALTGELEVVQQAVKEMNDPSQPNEEGITALHNAICGANYSIVDFLITAGANVNSPDSHGWTPLHCAASCNDTVICMALVQHGAAIFATTLSDGATAFEKCDPYREGYADCATYLADVEQSMGLMNSGAVYALWDYSAEFGDELSFREGESVTVLRRDGPEETDWWWAALHGQEGYVPRNYFGLFPRVKPQRSKV
B4: binds [2].

Source: article PMC6827562 (Structure (London, England : 1993), 2019)
